Test results reported in article PMC2841500 (Biochemical Journal, 2010).
Residue numbers refer to the chain shown, from its start. Names may count otherwise. Where two headings read alike, the source gives them in different places.

Key:
[1] = molecular target: T1, Alba1 F60A (Sulfolobus solfataricus, UniProt P60849 1-97, F60A); experiment: EMSA
T1 sequence: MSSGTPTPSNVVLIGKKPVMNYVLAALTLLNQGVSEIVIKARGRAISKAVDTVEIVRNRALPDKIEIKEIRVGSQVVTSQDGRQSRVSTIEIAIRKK

[2] = molecular target: T2, Alba1 (Sso10b) (Sulfolobus solfataricus, UniProt P60849 1-97); experiment: EMSA
T2 sequence: T1 sequence with A60F

[3] = molecular target: T2, Alba1 (Sso10b); experiment: EMSA; remark: listed apart in the source
[4] = molecular target: the molecule itself; experiment: pulsed ESR
[5] = molecular target: T2, Alba1 (Sso10b); experiment: EMSA; remark: listed apart in the source
[6] = molecular target: T2, Alba1 (Sso10b); experiment: EMSA; remark: listed apart in the source
[7] = molecular target: T1, Alba1 F60A; experiment: EMSA; remark: listed apart in the source

B1: 39 bp duplex (dsDNA)
DNA 1: CCTCGGTGCTAAGTTGATGCTGGTACTCGGAGTATCCCG
DNA 2: CGGGATACTCCGAGTACCAGCATCAACTTAGCACCGAGG
**Q.** Which Kd [1] does the source give for B1 here?
**A.** 520 ± 13 nM

B2: 39 mer ssDNA (ssDNA)
DNA: B1 DNA 1
**Q.** B2 was tested. Which Kd [2] did it give?
**A.** 270 ± 13 nM

B3: 30U (ssRNA)
RNA: UUUUUUUUUUUUUUUUUUUUUUUUUUUUUU
**Q.** B3 was tested. Which Kd [3] did it give?
**A.** 900 ± 38 nM

B4: spin-labelled Alba R59C (S. solfataricus Alba1 R59C modified with MTSSL) (natural protein, Sulfolobus solfataricus, UniProt P60849 1-97, looked up)
chain: T1 sequence with R59C, A60F
modifications: methanethiosulfonate spin label MTSSL on the cysteine at position 59
**Q.** Does B4 bind [4]?
**A.** binds

B5: 16 mer ssRNA (ssRNA)
RNA: CCCGGCGUGCGGCCCG
**Q.** For B5, which Kd [5] is on record?
**A.** 920 ± 69 nM

B6: 28A (ssRNA)
RNA: AAAAAAAAAAAAAAAAAAAAAAAAAAAA
**Q.** B6 was tested. Which Kd [6] did it give?
**A.** 960 ± 30 nM

B7: 16 bp duplex (dsDNA)
DNA 1: CCCGGCGTGCGGCCCG
DNA 2: CGGGCCGCACGCCGGG
**Q.** How did the Kd [7] turn out when B7 was run?
**A.** 710 ± 20 nM
